# From patent US10471162B2, “Collagen targeted imaging probes” (priority 2014, dated 2019)
# Where a SMILES comes first, the peptide text is derived from it. Bridges are numbered along the chain shown (N, C = ends). The star is where a group is joined. NODAGA = O=C(O)CN1CCN(CC(=O)O)CCN(C(CCC(=O)*)C(=O)O)CC1
# Legend:
# [1] = system: pulmonary fibrosis, C57/BL6 mice (bleomycin or sham); experiment: in vivo; type: in vivo, mouse; settings: for Biodistribution % ID/g, blood / Biodistribution % ID/g, heart / Biodistribution % ID/g, liver / Biodistribution % ID/g, spleen / Biodistribution % ID/g, bone / Biodistribution % ID/g, kidney / Biodistribution % ID/g, lungs / Biodistribution % ID/g, sm. intestine: male, C57/BL6, mouse; for Biodistribution % ID/g, blood / Biodistribution % ID/g, heart / Biodistribution % ID/g, liver / Biodistribution % ID/g, spleen / Biodistribution % ID/g, bone / Biodistribution % ID/g, kidney / Biodistribution % ID/g, lungs / Biodistribution % ID/g, sm. intestine / route of excretion: iv; for lung uptake in BM-treated (fibrotic) mice compared to sham, in words: biodistribution 2.5 hours after injection
# Protocol: (§1) Pulmonary fibrosis was induced in 7-8-week-old male C57/BL6 mice by transtracheal administration of bleomycin (BM; 2.5 U/kg) in 50 μL of PBS under direct vision using a small cervical incision. Sham animals received only PBS. Animals were placed in a small-animal PET/SPECT/CT scanner (Triumph; TriFoil Imaging), equipped with inhalation anesthesia and heating pad. Each animal was anesthetized with isoflurane (4% for induction, 2-2.5% for maintenance in medical air) and body temperature was kept at 37-38° C. using a heating pad. The femoral vein was cannulated for intravenous delivery of the PET agent. Each mouse was injected with approximately 0.1 mL and 20-50 μCi of ^64Cu-CBP(n), 0.1 mL and 20-50 μCi of ^68Ga-CBP(n) and 0.1 mL and 10-20 μCi of Al^18F-CBP(n) in a 18 mM solution of sucrose in water, followed by saline flush. […] The lungs, blood, urine, heart, liver, left rectus femoris muscle, spleen, small intestine, kidneys, left femur bone were collected from all animals. The tissues were weighed, and radioactivity in each tissue was measured on a gamma counter (CobraII Auto gamma; Packard). The radioactivity in the lung was reported as percent injected dose per gram corrected with the average sham weight, which was calculated by dividing the counts of ^64Cu per average sham tissue weight in gram by the total of counts of the injected dose. The radioactivity in every other tissue was reported as percent injected dose per gram (% ID/g), which was calculated by dividing the counts of ^64Cu per gram of tissue by the total of counts of the injected dose. A p-value of less than 0.05 was considered significant. Uncertainties are expressed as the standard error of the mean.
# [2] = in vivo; type: in vivo, mouse; settings: male, C57/BL6, mouse, in vivo, iv, total radioactivity; for tissue uptake at 2.5 h / tissue uptake at 2 h: Biodistribution % ID/g
# Protocol: as §1
# [3] = target: T1, rat tail collagen (Rattus norvegicus, UniProt P02454+P02466); experiment: rat tail collagen-binding assay; settings: 2 hours at room temperature, single binding site model
# T1 construct: from tissue; host or cells: rat tail
# Protocol: Binding isotherms were obtained by following a method previously reported. (Caravan, P., Das, B., Dumas, S., Epstein, F. H., Helm, P. A., Jacques, V., Koerner, S., Kolodziej, A., Shen, L., Sun, W., Zhang, Z., Angewandte Chemie, 2007, 119(43), 8319-8321.) Briefly, increasing concentrations of a mixture of ^63/65Cu-CBP(n) and ^64Cu-CBP(n) were added to collagen containing wells. […] An aliquot of each solution was reserved as a measure of the total concentration. The plates were incubated on a shaker table (300 rpm) for 2 hours at room temperature to allow the compound to bind. After 2 hours, the supernatant from each well (with or without collagen) was assayed for ^64Cu content. The relative amount of free, unbound compound in the sample supernatants and the amount of compound in the reserved (total) sample were determined by using a gamma counter. The bound concentration is [Total]−[Free]. The concentration of ^63/65Cu-CBP(n) was less than the collagen concentration and the data were fit to a model of a single binding site with dissociation constant, Kd.
# T1 sequence (P02454 152-1207 limits assumed): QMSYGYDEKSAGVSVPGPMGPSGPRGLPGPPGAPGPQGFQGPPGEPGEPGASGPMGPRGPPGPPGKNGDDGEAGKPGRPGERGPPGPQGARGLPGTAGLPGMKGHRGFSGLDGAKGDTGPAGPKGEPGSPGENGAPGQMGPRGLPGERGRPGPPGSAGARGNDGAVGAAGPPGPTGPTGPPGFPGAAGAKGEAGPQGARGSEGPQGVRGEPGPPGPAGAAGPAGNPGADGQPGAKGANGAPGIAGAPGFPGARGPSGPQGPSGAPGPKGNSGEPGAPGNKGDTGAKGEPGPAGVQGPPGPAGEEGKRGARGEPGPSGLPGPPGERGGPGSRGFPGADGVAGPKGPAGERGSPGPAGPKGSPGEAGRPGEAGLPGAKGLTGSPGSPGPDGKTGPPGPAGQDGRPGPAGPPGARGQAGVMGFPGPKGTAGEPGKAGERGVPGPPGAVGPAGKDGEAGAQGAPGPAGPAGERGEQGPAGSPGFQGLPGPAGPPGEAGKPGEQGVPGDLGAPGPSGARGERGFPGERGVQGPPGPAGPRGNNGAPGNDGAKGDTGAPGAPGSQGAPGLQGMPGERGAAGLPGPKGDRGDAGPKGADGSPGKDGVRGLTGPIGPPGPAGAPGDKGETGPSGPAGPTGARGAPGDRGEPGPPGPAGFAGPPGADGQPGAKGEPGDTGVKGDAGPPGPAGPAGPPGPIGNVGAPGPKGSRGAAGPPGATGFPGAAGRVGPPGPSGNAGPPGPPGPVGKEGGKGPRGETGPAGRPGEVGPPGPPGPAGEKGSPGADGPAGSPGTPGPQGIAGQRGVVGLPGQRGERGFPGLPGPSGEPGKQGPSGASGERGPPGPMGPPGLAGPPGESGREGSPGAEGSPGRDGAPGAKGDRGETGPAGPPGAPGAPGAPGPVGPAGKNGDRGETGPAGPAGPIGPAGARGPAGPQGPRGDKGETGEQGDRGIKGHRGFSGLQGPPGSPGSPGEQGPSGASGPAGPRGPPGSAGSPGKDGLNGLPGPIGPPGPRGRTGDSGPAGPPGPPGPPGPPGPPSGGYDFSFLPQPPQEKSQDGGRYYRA
# T1 sequence (P02466 86-1125 limits assumed): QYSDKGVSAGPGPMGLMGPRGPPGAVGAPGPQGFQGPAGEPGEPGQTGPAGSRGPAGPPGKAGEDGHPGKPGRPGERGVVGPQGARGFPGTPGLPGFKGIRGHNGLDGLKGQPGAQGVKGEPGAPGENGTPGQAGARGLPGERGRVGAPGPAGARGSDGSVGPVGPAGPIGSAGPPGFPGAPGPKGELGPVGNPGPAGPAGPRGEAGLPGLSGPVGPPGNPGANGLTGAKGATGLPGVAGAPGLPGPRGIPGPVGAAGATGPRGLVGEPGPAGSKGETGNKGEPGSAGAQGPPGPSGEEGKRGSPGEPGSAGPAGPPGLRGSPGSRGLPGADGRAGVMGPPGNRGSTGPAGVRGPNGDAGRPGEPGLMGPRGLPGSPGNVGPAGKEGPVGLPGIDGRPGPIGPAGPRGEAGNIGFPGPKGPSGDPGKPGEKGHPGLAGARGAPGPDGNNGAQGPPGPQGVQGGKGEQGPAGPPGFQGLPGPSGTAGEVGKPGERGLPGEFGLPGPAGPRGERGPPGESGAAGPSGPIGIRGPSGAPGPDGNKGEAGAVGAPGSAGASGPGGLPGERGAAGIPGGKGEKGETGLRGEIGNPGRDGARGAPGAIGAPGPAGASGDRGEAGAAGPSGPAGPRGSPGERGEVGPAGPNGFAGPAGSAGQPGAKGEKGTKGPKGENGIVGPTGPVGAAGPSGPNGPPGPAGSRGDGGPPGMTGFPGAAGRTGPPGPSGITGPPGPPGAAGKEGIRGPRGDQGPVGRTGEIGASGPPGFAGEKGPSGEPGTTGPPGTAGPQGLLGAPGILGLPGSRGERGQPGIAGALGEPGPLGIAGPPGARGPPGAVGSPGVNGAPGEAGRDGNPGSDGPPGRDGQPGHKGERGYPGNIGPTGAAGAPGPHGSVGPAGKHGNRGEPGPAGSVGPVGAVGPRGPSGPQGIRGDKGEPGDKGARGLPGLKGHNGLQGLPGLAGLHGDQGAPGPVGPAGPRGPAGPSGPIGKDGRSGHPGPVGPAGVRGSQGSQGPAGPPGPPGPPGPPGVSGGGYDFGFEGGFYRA
Structure (SMILES),"Biodistribution % ID/g, liver ([1]; in vivo, 2.5 h)",tissue uptake at 2.5 h ([2]; liver),Kd [3],"lung uptake in BM-treated (fibrotic) mice compared to sham, in words [1]","Biodistribution % ID/g, blood ([1]; in vivo, 2 h)","Biodistribution % ID/g, heart ([1]; in vivo, 2 h)","Biodistribution % ID/g, kidney ([1]; in vivo, 2 h)","Biodistribution % ID/g, liver ([1]; in vivo, 2 h)","Biodistribution % ID/g, lungs ([1]; in vivo, 2 h)","Biodistribution % ID/g, sm. intestine ([1]; in vivo, 2 h)","Biodistribution % ID/g, spleen ([1]; in vivo, 2 h)","route of excretion ([1]; mouse, in vivo)",tissue uptake at 2 h ([2]; blood),tissue uptake at 2 h ([2]; heart),tissue uptake at 2 h ([2]; kidney),tissue uptake at 2 h ([2]; liver),tissue uptake at 2 h ([2]; lungs),tissue uptake at 2 h ([2]; sm. intestine),tissue uptake at 2 h ([2]; spleen),other results
"CC(C)C[C@H](NC(=O)[C@@H]1CSSC[C@@H](NC(=O)[C@H](Cc2c[nH]cn2)NC(=O)[C@H](Cc2c[nH]c3ccccc23)NC(=O)[C@H](CCCCNC(=O)CNC(=O)CCC(C(=O)O)N2CCN(CC(=O)O)CCN(CC(=O)O)CC2)NC(=O)CNC(=O)CCC(C(=O)O)N2CCN(CC(=O)O)CCN(CC(=O)O)CC2)C(=O)N[C@@H]([C@@H](C)O)C(=O)N[C@@H]([C@@H](C)O)C(=O)N[C@@H](CCCCNC(=O)CCC(C(=O)O)N2CCN(CC(=O)O)CCN(CC(=O)O)CC2)C(=O)N[C@@H](Cc2ccccc2)C(=O)N2CCC[C@H]2C(=O)N[C@@H](Cc2c[nH]cn2)C(=O)N[C@@H](Cc2c[nH]cn2)C(=O)N[C@@H](Cc2ccc(O)cc2)C(=O)N1)C(=O)N[C@@H](Cc1ccc(O)cc1)C(=O)N[C@@H](Cc1ccc(-c2ccccc2)cc1)C(N)=O (stereo partly drawn) (64Cu complex, metal not drawn) [CBP11]",0.953 ± 0.069 % ID/g,1.3 ± 0.086 %ID/g,–,–,–,–,–,–,–,–,–,–,–,–,–,–,–,–,–,"Biodistribution % ID/g, blood ([1]; in vivo, 2.5 h): 0.373 ± 0.180 % ID/g; Biodistribution % ID/g, heart ([1]; in vivo, 2.5 h): 0.170 ± 0.044 % ID/g; Biodistribution % ID/g, spleen ([1]; in vivo, 2.5 h): 0.475 ± 0.063 % ID/g; tissue uptake at 2.5 h ([2]; blood): 0.21 ± 0.017 %ID/g; tissue uptake at 2.5 h ([2]; heart): 0.143 ± 0.008 %ID/g; tissue uptake at 2.5 h ([2]; spleen): 0.408 ± 0.015 %ID/g"
C[C@@H](O)[C@@H]1NC(=O)[C@@H](NC(=O)[C@H](Cc2c[nH]cn2)NC(=O)[C@H](Cc2c[nH]c3ccccc23)NC(=O)[C@H](CCC(N)=O)NC(=O)CNC(=O)CCC(C(=O)O)N2CCN(CC(=O)O)CCN(CC(=O)O)CC2)CSSC[C@@H](C(=O)N[C@@H](Cc2ccccc2)C(=O)N[C@@H](Cc2ccc(O)cc2)C(=O)NCC(N)=O)NC(=O)[C@H](Cc2ccc(O)cc2)NC(=O)[C@H](Cc2c[nH]cn2)NC(=O)[C@H](Cc2c[nH]cn2)NC(=O)[C@@H]2CCCN2C(=O)[C@H](Cc2ccccc2)NC(=O)[C@H](CCCNC(=N)N)NC(=O)[C@H]([C@@H](C)O)NC1=O (stereo partly drawn) [CBP5] ({NODAGA}-GQWHCTTRFPHHYCFYG-NH2; disulfide 5-14),–,–,7.2 ± 5.2 µM,greater lung uptake in BM-treated mice,0.121 ± 0.028 % ID/g,0.094 ± 0.013 % ID/g,18.368 ± 1.909 % ID/g,3.836 ± 0.770 % ID/g,0.623 ± 0.320 % ID/g,0.431 ± 0.089 % ID/g,1.588 ± 0.546 % ID/g,excreted mainly through the kidneys,0.11 ± 0.018 %ID/g,0.075 ± 0.009 %ID/g,30.5 ± 2.01 %ID/g,2.63 ± 0.146 %ID/g,0.318 ± 0.135 %ID/g,0.513 ± 0.1 %ID/g,0.815 ± 0.42 %ID/g,"Biodistribution % ID/g, bone ([1]; in vivo, 2 h): 0.490 ± 0.237 % ID/g; Biodistribution % ID/lung ([1]; mouse, in vivo): 0.016 ± 0.007 % ID/lung; tissue uptake at 2 h ([2]; bone): 0.703 ± 0.343 %ID/g; tissue uptake dose at 2 h ([2]; Biodistribution % ID/lung): 0.032 ± 0.016 %ID"
CC(C)C[C@H](NC(=O)[C@@H]1CSSC[C@H](NC(=O)[C@H](Cc2c[nH]cn2)NC(=O)[C@H](Cc2c[nH]c3ccccc23)NC(=O)[C@H](CCC(N)=O)NC(=O)CNC(=O)CCC(C(=O)O)N2CCN(CC(=O)O)CCN(CC(=O)O)CC2)C(=O)N[C@@H](Cc2ccc(O)cc2)C(=O)N[C@@H]([C@@H](C)O)C(=O)N[C@@H](CC(C)C)C(=O)N[C@@H](Cc2ccccc2)C(=O)N2CCC[C@H]2C(=O)N[C@@H](Cc2c[nH]cn2)C(=O)N[C@@H](Cc2c[nH]cn2)C(=O)N[C@@H](Cc2ccc(O)cc2)C(=O)N1)C(=O)N[C@@H](Cc1ccc(O)cc1)C(=O)NCC(N)=O (stereo partly drawn) [CBP6] ({NODAGA}-GQWHCYTLFPHHYCLYG-NH2; disulfide 5-14; C-terminus assumed),–,–,14.6 ± 5.8 µM,greater lung uptake in BM-treated mice,0.279 ± 0.096 % ID/g,0.156 ± 0.016 % ID/g,14.008 ± 0.727 % ID/g,2.503 ± 0.218 % ID/g,0.019 ± 0.003 % ID/g,0.938 ± 0.164 % ID/g,0.775 ± 0.084 % ID/g,excreted mainly through the kidneys,0.147 ± 0.01 %ID/g,0.121 ± 0.017 %ID/g,13.4 ± 1.23 %ID/g,2.64 ± 0.144 %ID/g,0.013 ± 0.002 %ID/g,0.747 ± 0.168 %ID/g,0.669 ± 0.03 %ID/g,–
"CC(C)C[C@H](NC(=O)[C@@H]1CSSC[C@H](NC(=O)[C@H](Cc2c[nH]cn2)NC(=O)[C@H](Cc2c[nH]c3ccccc23)NC(=O)[C@H](CCCCNC(=O)CNC(=O)CN2CCN(CC(=O)O)CCN(CC(=O)O)CC2)NC(=O)CNC(=O)CN2CCN(CC(=O)O)CCN(CC(=O)O)CC2)C(=O)N[C@@H]([C@@H](C)O)C(=O)N[C@@H]([C@@H](C)O)C(=O)N[C@@H](CCCCNC(=O)CN2CCN(CC(=O)O)CCN(CC(=O)O)CC2)C(=O)N[C@@H](Cc2ccccc2)C(=O)N2CCC[C@H]2C(=O)N[C@@H](Cc2c[nH]cn2)C(=O)N[C@@H](Cc2c[nH]cn2)C(=O)N[C@@H](Cc2ccc(O)cc2)C(=O)N1)C(=O)N[C@@H](Cc1ccc(O)cc1)C(=O)N[C@@H](Cc1ccc(-c2ccccc2)cc1)C(N)=O [CBP10, Al^18F-NOTA-cPep(7)]",27.231 ± 0.995 % ID/g,14 ± 1 %ID/g,–,–,–,–,–,–,–,–,–,–,–,–,–,–,–,–,–,"Biodistribution % ID/g, bone ([1]; in vivo, 2.5 h): 2.963 ± 0.716 % ID/g; Biodistribution % ID/g, kidney ([1]; in vivo, 2.5 h): 44.170 ± 16.811 % ID/g; Biodistribution % ID/g, sm. intestine ([1]; in vivo, 2.5 h): 1.492 ± 0.542 % ID/g; tissue uptake at 2.5 h ([2]; bone): 2.53 ± 0.735 %ID/g; tissue uptake at 2.5 h ([2]; kidney): 26.2 ± 4.85 %ID/g; tissue uptake at 2.5 h ([2]; sm. intestine): 1.12 ± 0.48 %ID/g"
